Read-outs that look alike come from different tables or passages of the source. Where no end group is shown, it is not given here. [ ]: non-standard residue; d: D form. The star is where a group is joined. Propanoyl(3-C8F17) = O=C(CCC(F)(F)C(F)(F)C(F)(F)C(F)(F)C(F)(F)C(F)(F)C(F)(F)C(F)(F)F)*; Phe(4-Br) = N[C@@H](Cc1ccc(Br)cc1)C(=O)O; fluorocarbon group = not defined here; Palmitoyl = CCCCCCCCCCCCCCCC(=O)*; acyl group = not defined here; Nle = CCCC[C@H](N)C(=O)O; Aib = CC(C)(N)C(=O)O
How the values were obtained:
[1] = target: T1, wild-type rat apelin receptor-EGFP (rat, UniProt Q9JHG3 1-377, EGFP is fused at the C-terminal (intracellular) end of the receptor. It is not included in the letters.); assay: cell-based or functional assay
T1 sequence: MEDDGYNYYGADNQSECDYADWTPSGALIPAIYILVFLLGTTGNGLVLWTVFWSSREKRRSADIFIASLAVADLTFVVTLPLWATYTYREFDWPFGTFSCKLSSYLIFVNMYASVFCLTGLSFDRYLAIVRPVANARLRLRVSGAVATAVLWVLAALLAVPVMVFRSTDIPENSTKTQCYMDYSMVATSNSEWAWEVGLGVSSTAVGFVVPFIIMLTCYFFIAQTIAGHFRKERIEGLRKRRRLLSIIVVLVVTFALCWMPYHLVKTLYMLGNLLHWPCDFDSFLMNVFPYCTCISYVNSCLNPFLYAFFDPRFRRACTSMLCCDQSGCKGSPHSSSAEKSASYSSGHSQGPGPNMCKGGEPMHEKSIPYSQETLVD

[2] = target: T1, wild-type rat apelin receptor-EGFP; assay: cell-based or functional assay; remark: listed apart in the source
[3] = target: T1, wild-type rat apelin receptor-EGFP; assay: cell-based or functional assay; remark: listed apart in the source
[4] = target: T1, wild-type rat apelin receptor-EGFP; assay: competitive radioligand binding vs [125I]-pE13F, membranes of CHO cells expressing rat apelin receptor-EGFP
[5] = target: T1, wild-type rat apelin receptor-EGFP; assay: as above; remark: listed apart in the source
[6] = target: T1, wild-type rat apelin receptor-EGFP; assay: cell-based or functional assay; remark: listed apart in the source
[7] = target: T1, wild-type rat apelin receptor-EGFP; assay: cell-based or functional assay; remark: listed apart in the source
[8] = target: T1, wild-type rat apelin receptor-EGFP; assay: competitive radioligand binding vs [125I]-pE13F, rat apelin receptor-EGFP in CHO membranes
[9] = target: T1, wild-type rat apelin receptor-EGFP; assay: D-scanning; competitive radioligand binding vs [125I]-pE13F, rat apelin receptor-EGFP in CHO membranes
[10] = target: T1, wild-type rat apelin receptor-EGFP; assay: radioligand binding on membrane preparation from CHO cells stably expressing the rat apelin receptor-EGFP
[11] = target: T1, wild-type rat apelin receptor-EGFP; assay: cell-based or functional assay; remark: listed apart in the source
[12] = target: T1, wild-type rat apelin receptor-EGFP; assay: cell-based or functional assay; remark: listed apart in the source
[13] = target: T1, wild-type rat apelin receptor-EGFP; assay: cell-based or functional assay; remark: listed apart in the source
[14] = target: T1, wild-type rat apelin receptor-EGFP; assay: cell-based or functional assay; remark: listed apart in the source
[15] = target: T1, wild-type rat apelin receptor-EGFP; assay: competitive radioligand binding vs [125I]-pE13F, membranes of CHO cells expressing rat apelin receptor-EGFP
Experimental: (§1) Crude membrane preparation from CHO stably expressing the wild-type rat apelin receptor-EGFP, were prepared as previously described (39). […] The reaction was stopped by adding ice-cold binding buffer and filtered through glass microfiber filters (Whatman GF/C filters). Radioactivity was counted in Wizard 1470 Wallac gamma counter (Perkin Elmer, Turku, Finland).

[16] = target: T1, wild-type rat apelin receptor-EGFP; assay: as above; remark: listed apart in the source
Experimental: as §1

[17] = target: T1, wild-type rat apelin receptor-EGFP; assay: as above; remark: listed apart in the source
Experimental: as §1

Chain of AT1 receptor (P30556 whole entry): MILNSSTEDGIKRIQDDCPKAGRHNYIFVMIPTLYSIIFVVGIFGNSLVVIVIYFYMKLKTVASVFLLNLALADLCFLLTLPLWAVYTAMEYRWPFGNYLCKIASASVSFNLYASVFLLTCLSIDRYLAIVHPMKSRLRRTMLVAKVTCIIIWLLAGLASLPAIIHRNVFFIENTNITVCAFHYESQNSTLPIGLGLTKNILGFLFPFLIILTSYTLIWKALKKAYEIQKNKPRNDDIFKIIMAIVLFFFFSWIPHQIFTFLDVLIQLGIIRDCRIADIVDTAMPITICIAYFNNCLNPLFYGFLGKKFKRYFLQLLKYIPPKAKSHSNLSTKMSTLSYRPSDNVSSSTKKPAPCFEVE

pE13(4Br-Phe^13) (peptide) showed an inhibition of forskolin-induced cAMP production IC50 [1] of 0.1 nM.

Work on “pE13F (pyroglutamyl form of apelin 13) (peptide)” yielded an inhibition of forskolin-induced cAMP production IC50 [1] of 1 nM.

In the case of {Propanoyl(3-C8F17)}-KFRRQRPRLSHKGPMPF [JFM V-0196B], the IC50 cAMP inhibition [2] is reported as 3.1 nM, the cAMP production IC50 [2] is reported as 3.1 nM and the ERK1/2 phosphorylation EC50 [3] is reported as 0.89 nM. The Inhibition of FSK-induced cAMP production IC50 [3] was 3.13 nM, the Internalization EC50 [3] was 0.41 nM and the Ki [4] was 0.21 nM. The Ki [5] was 0.08 nM.

B1: P26 (peptide)
peptide: RPRLSXKAPXPF
HELM: PEPTIDE1{[ac].R.P.R.[dL].S.[Aib].K.[dA].P.[Nle].P.[O=C(O)[C@H](Cc1ccc(Br)cc1)N[*:1]]}$$$$V2.0
SMILES: CCCC[C@H](NC(=O)[C@@H]1CCCN1C(=O)[C@@H](C)NC(=O)[C@H](CCCCN)NC(=O)C(C)(C)NC(=O)[C@H](CO)NC(=O)[C@@H](CC(C)C)NC(=O)[C@H](CCCNC(=N)N)NC(=O)[C@@H]1CCCN1C(=O)[C@H](CCCNC(=N)N)NC(C)=O)C(=O)N1CCC[C@H]1C(=O)N[C@@H](Cc1ccc(Br)cc1)C(=O)O
B1 showed an ERK1/2 phosphorylation EC50 [2] of 72.1 nM, an Internalization EC50 [2] of 2.1 nM and a cAMP production IC50 [2] of 2.22 nM. For the same molecule, the inhibition of forskolin-induced cAMP production IC50 [2] was 4.4 nM, the Inhibition of FSK-induced cAMP production IC50 [3] was 2.22 nM and the Internalization EC50 [3] was 2.11 nM. The ERK1/2 phosphorylation EC50 [6] was 71.3 nM, the ERK1/2 phosphorylation EC50, fold against K17F [6] was 18 fold and the Ki [5] was 2.11 nM.

B2: P92 (peptide)
peptide: KFRRQRPRLSXKAPXPF
HELM: PEPTIDE1{[ac].K.F.[dR].R.[dQ].R.P.R.[dL].S.[Aib].K.[dA].P.[Nle].P.[O=C(O)[C@H](Cc1ccc(Br)cc1)N[*:1]]}$$$$V2.0
SMILES: CCCC[C@H](NC(=O)[C@@H]1CCCN1C(=O)[C@@H](C)NC(=O)[C@H](CCCCN)NC(=O)C(C)(C)NC(=O)[C@H](CO)NC(=O)[C@@H](CC(C)C)NC(=O)[C@H](CCCNC(=N)N)NC(=O)[C@@H]1CCCN1C(=O)[C@H](CCCNC(=N)N)NC(=O)[C@@H](CCC(N)=O)NC(=O)[C@H](CCCNC(=N)N)NC(=O)[C@@H](CCCNC(=N)N)NC(=O)[C@H](Cc1ccccc1)NC(=O)[C@H](CCCCN)NC(C)=O)C(=O)N1CCC[C@H]1C(=O)N[C@@H](Cc1ccc(Br)cc1)C(=O)O
For B2, the selectivity factor towards the AT1 receptor with respect to the apelin receptor (AT1 receptor) was 100 fold, the cAMP production IC50 [7] was 0.62 nM and the ERK1/2 phosphorylation EC50 [2] was 3.42 nM. It also gave an Internalization EC50 [2] of 0.38 nM, a cAMP production IC50 [2] of 0.56 nM and an inhibition of forskolin-induced cAMP production IC50 [2] of 0.2 nM. It also gave an Inhibition of FSK-induced cAMP production IC50 [3] of 0.56 nM, an IC50 [4] of 0.21 nM and a Ki [4] of 0.2 nM. It also gave a Ki [5] of 0.09 nM.

Ac-KFRRQRPR[dL]S[Aib]K[dA]P[Nle]P[Phe(4-Br)] (not fully specified (residue 3)) [P96] gave a cAMP production IC50 [7] of 0.45 nM and an IC50 [4] of 0.11 nM.

Molecule Palmitoyl-KFRRQRPRLSHKGPMPF [JFM V-0196A] has an IC50 cAMP inhibition [2] of 3.9 nM, a cAMP production IC50 [2] of 3.9 nM and a Ki [4] of 0.76 nM.

K(Palmitoyl)FRRQRPRLSHKGPMPF [JFM V-0220A] gave an IC50 cAMP inhibition [2] of 2 nM and a Ki [4] of 1.43 nM.

Molecule K(heptadecafluoroundecanoyl)FRRQRPRLSHKGPMPF [JFM V-0220B] has an IC50 cAMP inhibition [2] of 1 nM and a Ki [4] of 0.16 nM.

B3: JFM V-0210/1 (peptide)
peptide: KKFRRQRPRLSHKGPMPF
modifications: fluorocarbon (perfluoroalkyl) group on the εNH2 of the added N-terminal linker L-lysine
With B3 the IC50 cAMP inhibition [2] was 3.8 nM and the Ki [4] was 0.18 nM.

With KKFRRQRPRLSHKGPMPF (acyl group RC(O)- on the εNH2 of the added N-terminal linker L-lysine) [JFM V-0210/2] the IC50 cAMP inhibition [2] was 1.4 nM and the Ki [4] was 1.33 nM.

With Ac-KFRR[dQ]RPR[dL]S[Aib]K[dA]P[Nle]P[Phe(4-Br)] [P95] the cAMP production IC50 [7] was 0.34 nM, the factor of improved affinity as compared to K17F [8] was 10 fold and the IC50 [4] was 0.03 nM.

Work on XRPRLSHKAPMPF (pGlu at 1; D-Ala at 9) [pE13F(D-Ala^9)] yielded an inhibition of forskolin-induced cAMP production IC50 [2] of 43 nM and a Ki [9] of 4.3 nM.

For Ac-RPRLSHKGPMPF [Ac-R12F], the inhibition of forskolin-induced cAMP production IC50 [2] was 2.4 nM and the Ki [8] was 1.4 nM.

XRPRLSXKGPMPF (pGlu at 1; Aib (α-aminoisobutyric acid) at 7) [pE13F(Aib^7)] showed an inhibition of forskolin-induced cAMP production IC50 [2] of 1.2 nM and a Ki [8] of 2.6 nM.

Work on XRPRLSHKGPXPF (pGlu at 1; Nle (norleucine) at 11) [pE13F(Nle^11)] yielded an inhibition of forskolin-induced cAMP production IC50 [2] of 1 nM.

Molecule {fluorocarbon group}-KF[dR]R[dQ]RPR[dL]S[Aib]K[dA]P[Nle]P[Phe(4-Br)] (reading uncertain; also: fluorocarbon group on the NH2α of Lys 1) [FLUORO-P92] has a Ki [10] of 0.31 nM.

{acyl group}-KF[dR]R[dQ]RPR[dL]S[Aib]K[dA]P[Nle]P[Phe(4-Br)] (reading uncertain; also: acyl group on the NH2α of Lys 1) [LIPO-P92] gave a Ki [10] of 0.25 nM and a factor of decreased affinity as compared to P92 [10] of 2 to 3 fold.

In the case of H-KFRRQRPRLSHKGPMPF-OH [K17F (apelin-17)], the “cAMP production IC50” value [11] is reported as 0.3 nM, the “ERK1/2 phosphorylation EC50” value [12] is reported as 4.08 nM and the “Internalization EC50” value [12] is reported as 0.26 nM. For the same molecule, the “cAMP production IC50” value [12] was 0.3 nM, the “IC50 cAMP inhibition” value [13] was 0.09 nM and the “ERK1/2 phosphorylation EC50” value [14] was 4.08 nM. The “Inhibition of FSK-induced cAMP production IC50” value [14] was 0.3 nM, the “Internalization EC50” value [14] was 0.26 nM and the Ki [15] was 0.26 nM. For the same molecule, the IC50 [16] was 0.29 nM, the Ki [16] was 0.049 nM and the Ki [17] was 0.06 nM.

From patent US20170355734A1 (INSERM INSTITUT NATIONAL DE LA SANT ET DE LA RECHERCHE M …, published 2017)
